Measurements published in patent US20250257099A1 (priority 2022, published 2025).

What was measured:
[1] = target: SARS-CoV-2 spike (S) glycoprotein (SARS-CoV-2) (UniProt P0DTC2); assay: cell-based or functional assay
[2] = target: MERS-CoV spike (S) protein (MERS-CoV) (UniProt K9N5Q8); assay: cell-based or functional assay

Substance: EK1 lipopeptide (EK1C4), cholesterol-conjugated
- IC50, plaque-neutralization test, SARS-CoV-2 infection of Vero E6 cells [1]: 80 nM
- IC50, plaque-neutralization test, MERS-CoV infection of Vero E6 cells [2]: 8 nM
